Experiments:
[1] = biological target: T1, Cdc42-GTPγS (activated Cdc42) (UniProt P60953 1-191); assay: apparent equilibrium binding constant; fluorescence titration of a fixed concentration of labeled WASP fragment with cdc42-GTPγS
T1 construct: also called GTPγS-Cdc42

[2] = biological target: T1, Cdc42-GTPγS (activated Cdc42)
RhoA (activated GTPase) = RhoA (activated GTPase) (UniProt P61586 1-193); assay: fluorescence response of the I-SO WASP biosensor with activated GTPases
Rac (activated GTPase) = Rac (activated GTPase) (UniProt P63000 1-192); assay: as above

T1 sequence (P60953 whole entry, the tested form may be a part): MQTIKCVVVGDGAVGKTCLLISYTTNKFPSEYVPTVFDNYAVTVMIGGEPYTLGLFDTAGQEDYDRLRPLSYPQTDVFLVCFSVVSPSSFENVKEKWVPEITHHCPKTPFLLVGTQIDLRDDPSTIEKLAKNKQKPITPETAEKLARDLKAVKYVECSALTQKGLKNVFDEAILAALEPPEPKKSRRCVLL
Sequence of RhoA (activated GTPase) (P61586 whole entry): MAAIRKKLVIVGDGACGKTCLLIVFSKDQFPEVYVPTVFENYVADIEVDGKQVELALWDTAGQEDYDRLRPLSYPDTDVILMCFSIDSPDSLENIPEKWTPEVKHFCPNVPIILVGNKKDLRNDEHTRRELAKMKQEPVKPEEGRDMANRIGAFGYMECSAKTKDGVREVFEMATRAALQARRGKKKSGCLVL

Row | Binder | Kd [1] [nM] | change in fluorescence intensity [2] [fold] | binding result (RhoA (activated GTPase)) | binding result (Rac (activated GTPase)) | increase in fluorescence intensity [2] [fold]
1 | Wiskott Aldrich Syndrome Protein (WASP) fragment, residues 201-320, F271C, labeled with S-SO dye 2e (other, also called labeled WASP fragment; WASP conjugate; not shown: C-terminal 6His fusion from pET23a) DIQNPDITSSRYRGLPAPGPSPADKKRSGKKKISKADIGAPSGFKHVSHVGWDPQNGFDVNNLDPDLRSLCSRAGISEAQLTDAETSKLIYDFIEDQGGLEAVRQEMRRQEPLPPPPPPS | 150 | 3 | – | – | –
2 | WASP fragment F271C labeled with I-SO dye (other, also called I-SO-WASP biosensor; I-SO labeled WASP fragment; not shown: C-terminal 6His fusion from pET23a) DIQNPDITSSRYRGLPAPGPSPADKKRSGKKKISKADIGAPSGFKHVSHVGWDPQNGFDVNNLDPDLRSLCSRAGISEAQLTDAETSKLIYDFIEDQGGLEAVRQEMRRQEPLPPPPPPS | – | – | no binding | no binding | 2.8
